The text below walks through data of the supplement of paper PMC7877785.

This series in a line: self-splicing fitness, log relative to wild type (ln ratio); higher = more splicing; Tetrahymena group I intron in knt gene, E. coli kanamycin selection, DiMSum; sequences stand for … in CUCUCU…GGAGGGAAAAGUUAUCAGGCAUGCACCUGGUAGCUAGUCUUUAAACCAAUAGAUUGCAUCGGUUUAAAAGGCAAGACCGUCAAAUUGCGGGAAAGGGGUCAACAGCCGUUCAGUACCAAGUCUCAGGGGAAACUUUGAGAUGGCCUUGCAAAGGGUAUGGUAAUAAGCUGACGGACAUGGUCCUAACCACGCAGCCAAGUCCUAAGUCAACAGAUCUUCUGUUGAUAUGGAUGCAGUUCACAGACUAAAUGUCGGUCGGGGAAGAUGUAUUCUUCUCAUAAGAUAUAGUCGGACCUCUCCUUAAUGGGAGCUAGCGGAUGAAGUGAUGCAACACUGGAGCCGCUGGGAACUAAUUUGUAUGCGAAAGUAUAUUGAUUAGUUUUGGAGUACUCGUGGUCG
The method in brief:
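DiMSum derived fitness as the error-weighted combination of fold changes across replicates, kanamycin versus no kanamycin, normalised to wild type. E. coli BL21(DE3) held the library, which randomised all eight P1ex-region intron nucleotides within the knt kanamycin-resistance gene on pET-22b(+). Six replicate transformations grew overnight at 37°C or 30°C on LB agar with or without 25 μg/mL kanamycin, also containing 100 μg/mL carbenicillin, 50 μM IPTG and 0.2% rhamnose, and pooled colonies were amplicon-sequenced on an Illumina HiSeq 2500.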

± gives the uncertainty stated by the source.

As for CACCAGCAAUAUUACGCCGA, the “self-splicing fitness (ln)” value reads like this: (30 °C) -2.88 ± 0.19; (37 °C) -1.86 ± 0.21.
Turning to AAGCAGCAAUAUUACGGGUC, the “self-splicing fitness (ln)” value is, setting by setting: (30 °C) -3.12 ± 0.12; (37 °C) -2.61 ± 0.18.
Consider CGACAGCAAUAUUACGGCGG, for which the “self-splicing fitness (ln)” value was -0.174 ± 0.078 (30 °C) and 0.335 ± 0.11 (37 °C).
For ACGGAGCAAUAUUACGAGCG the same measures were -2.76 ± 0.28 and -1.59 ± 0.2.
For CCAAAGCAAUAUUACGACGG the same measures were -3.1 ± 0.14 and -2.43 ± 0.19.
In the case of CCUAAGCAAUAUUACGUGGA, the “self-splicing fitness (ln)” value by setting is: (30 °C) -2.73 ± 0.15; (37 °C) -2.55 ± 0.28.
As for UGUAAGCAAUAUUACGCUCA, the “self-splicing fitness (ln)” value (30 °C) is -0.207 ± 0.11 and the “self-splicing fitness (ln)” value (37 °C) came out at 0.681 ± 0.18.
In the same order, the values of GUCCAGCAAUAUUACGCAUU are -0.492 ± 0.053 and 0.587 ± 0.073.
For CAGUAGCAAUAUUACGGAUG the same measures were -1.04 ± 0.099 and -0.362 ± 0.12.
In the same order, the values of AGAAAGCAAUAUUACGUUCU are -2.72 ± 0.15 and -1.41 ± 0.14.
For the sequence GACCAGCAAUAUUACGCGUU, the “self-splicing fitness (ln)” value reads like this: (30 °C) -3.49 ± 0.12; (37 °C) -2.54 ± 0.14.
For AGUUAGCAAUAUUACGUGAU the same measures were -3.08 ± 0.21 and -1.19 ± 0.18.
With UCAAAGCAAUAUUACGAGAU, the “self-splicing fitness (ln)” value is -4.03 ± 0.33 (30 °C) and -1.91 ± 0.2 (37 °C).
For AUGUAGCAAUAUUACGGCAA the same measures were 0.118 ± 0.11 and -0.419 ± 0.12.
As to GAUCAGCAAUAUUACGUUGA, the “self-splicing fitness (ln)” value by setting is: (30 °C) -2.24 ± 0.17; (37 °C) -1.54 ± 0.15.
Take UUCGAGCAAUAUUACGGAUC: the “self-splicing fitness (ln)” value (37 °C) was -1.85 ± 0.48.
As for CUACAGCAAUAUUACGGUGA, the “self-splicing fitness (ln)” value was -1.61 ± 0.081 (30 °C) and -0.453 ± 0.092 (37 °C).
For GACGAGCAAUAUUACGUUGA, the “self-splicing fitness (ln)” value runs as follows: (30 °C) -2.36 ± 0.22; (37 °C) -1.5 ± 0.17.
GAAUAGCAAUAUUACGCGGU: the “self-splicing fitness (ln)” value was -2.24 ± 0.15 (30 °C) and -2.75 ± 0.27 (37 °C).
Consider ACUGAGCAAUAUUACGACUC, for which the “self-splicing fitness (ln)” value is -2.18 ± 0.16 (30 °C) and -1.13 ± 0.2 (37 °C).
As to AAACAGCAAUAUUACGACUG, the “self-splicing fitness (ln)” value (30 °C) was -1.64 ± 0.064 and the “self-splicing fitness (ln)” value (37 °C) is -0.795 ± 0.071.
In the same order, the values of AUAAAGCAAUAUUACGGUGU are -1.25 ± 0.068 and -0.672 ± 0.082.
GCCUAGCAAUAUUACGCCUA: under “37 °C”, the “self-splicing fitness (ln)” value is -2.79 ± 0.43.
Take CAGAAGCAAUAUUACGGUCU: the “self-splicing fitness (ln)” value (30 °C) is -1.52 ± 0.064 and the “self-splicing fitness (ln)” value (37 °C) was -1.09 ± 0.082.
Turning to GUGGAGCAAUAUUACGAAGA, the “self-splicing fitness (ln)” value (37 °C) is -2.05 ± 0.49.
As for CUAUAGCAAUAUUACGGGUG, the “self-splicing fitness (ln)” value reads like this: (30 °C) -0.36 ± 0.061; (37 °C) 0.369 ± 0.085.
Regarding GACUAGCAAUAUUACGUCUC, the “self-splicing fitness (ln)” value is -1.46 ± 0.16 (30 °C) and -0.484 ± 0.16 (37 °C).
For CGACAGCAAUAUUACGGGCG, the “self-splicing fitness (ln)” value was -1.71 ± 0.17 (30 °C) and -1.81 ± 0.19 (37 °C).
For UCUAAGCAAUAUUACGGGGA the same measures were -1.76 ± 0.11 and -0.821 ± 0.12.
In the same order, the values of CCUCAGCAAUAUUACGCAAG are -3.31 ± 0.17 and -1.71 ± 0.14.
With GCACAGCAAUAUUACGUUUC, the “self-splicing fitness (ln)” value was -1.61 ± 0.063 (30 °C) and -0.982 ± 0.084 (37 °C).
Regarding GAUGAGCAAUAUUACGGUAU, the “self-splicing fitness (ln)” value was -2.71 ± 0.18 (30 °C) and -1.28 ± 0.14 (37 °C).
Take AUACAGCAAUAUUACGUUGG: the “self-splicing fitness (ln)” value runs as follows: (30 °C) -3.51 ± 0.14; (37 °C) -2.87 ± 0.16.
For AUCGAGCAAUAUUACGACUC the same measures were -3.4 ± 0.3 and -1.98 ± 0.27.
In the same order, the values of UAUCAGCAAUAUUACGAGAA are -1.22 ± 0.16 and -0.559 ± 0.13.
Take GAGUAGCAAUAUUACGACAC: the “self-splicing fitness (ln)” value reads like this: (30 °C) -0.768 ± 0.18; (37 °C) -0.953 ± 0.27.
Turning to GUACAGCAAUAUUACGGAAC, the “self-splicing fitness (ln)” value was -3.3 ± 0.19 (30 °C) and -0.753 ± 0.17 (37 °C).
In the same order, the values of CCGAAGCAAUAUUACGAUCG are -0.383 ± 0.065 and -0.283 ± 0.076.
